# From the supplement of paper PMC7877785
# ± gives the uncertainty stated by the source.
# Test: self-splicing fitness, log relative to wild type (ln ratio); higher = more splicing; Tetrahymena group I intron in knt gene, E. coli kanamycin selection, DiMSum; sequences stand for … in CUCUCU…GGAGGGAAAAGUUAUCAGGCAUGCACCUGGUAGCUAGUCUUUAAACCAAUAGAUUGCAUCGGUUUAAAAGGCAAGACCGUCAAAUUGCGGGAAAGGGGUCAACAGCCGUUCAGUACCAAGUCUCAGGGGAAACUUUGAGAUGGCCUUGCAAAGGGUAUGGUAAUAAGCUGACGGACAUGGUCCUAACCACGCAGCCAAGUCCUAAGUCAACAGAUCUUCUGUUGAUAUGGAUGCAGUUCACAGACUAAAUGUCGGUCGGGGAAGAUGUAUUCUUCUCAUAAGAUAUAGUCGGACCUCUCCUUAAUGGGAGCUAGCGGAUGAAGUGAUGCAACACUGGAGCCGCUGGGAACUAAUUUGUAUGCGAAAGUAUAUUGAUUAGUUUUGGAGUACUCGUGGUCG
# In short: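 The eight P1ex-region nucleotides of an intron in the knt kanamycin-resistance gene on pET-22b(+) were all randomised and the library put into E. coli BL21(DE3). Six replicate transformations were grown overnight at 37°C or 30°C on LB agar with or without 25 μg/mL kanamycin, together with 100 μg/mL carbenicillin, 50 μM IPTG and 0.2% rhamnose. Colonies were pooled and amplicon-sequenced on an Illumina HiSeq 2500. Fitness from DiMSum is the error-weighted combination of wild-type-normalised replicate fold changes, kanamycin over none.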
Sequence,self-splicing fitness (ln) (30 °C),self-splicing fitness (ln) (37 °C)
CGCUAGCAAUAUUACGCCGU,-0.129 ± 0.17,-0.719 ± 0.18
CGCUAGCAAUAUUACGCGCA,-1.81 ± 0.17,-1.52 ± 0.17
CGCUAGCAAUAUUACGCGCU,-3.85 ± 0.25,-2.75 ± 0.22
CGCUAGCAAUAUUACGCGGU,-3.4 ± 0.26,-2.39 ± 0.21
CGCUAGCAAUAUUACGUAUC,-3.84 ± 0.33,-2.76 ± 0.31
CGCUAGCAAUAUUACGUCCU,-1.59 ± 0.15,-1.45 ± 0.17
CGGAAGCAAUAUUACGAAAU,-3.59 ± 0.45,-2.96 ± 0.31
CGGAAGCAAUAUUACGAACU,-1.04 ± 0.1,-0.0975 ± 0.12
CGGAAGCAAUAUUACGAAUA,-2.53 ± 0.39,
CGGAAGCAAUAUUACGAGCC,-2.13 ± 0.23,-0.454 ± 0.22
CGGAAGCAAUAUUACGCGCA,-1.9 ± 0.11,-1.08 ± 0.094
CGGAAGCAAUAUUACGCGGA,-2.73 ± 0.28,-2.93 ± 0.43
CGGAAGCAAUAUUACGCUCG,-3.42 ± 0.21,-1.97 ± 0.23
CGGAAGCAAUAUUACGGACG,-3 ± 0.27,-2.12 ± 0.44
CGGAAGCAAUAUUACGGACU,-0.00733 ± 0.094,-0.0682 ± 0.14
CGGAAGCAAUAUUACGGAGC,-2.75 ± 0.26,-1.88 ± 0.36
CGGAAGCAAUAUUACGGAUG,-2.02 ± 0.073,-0.785 ± 0.086
CGGAAGCAAUAUUACGGCCU,0.133 ± 0.15,0.152 ± 0.16
CGGAAGCAAUAUUACGGGGA,-3.79 ± 0.26,-2.65 ± 0.31
CGGAAGCAAUAUUACGGUGA,-1.64 ± 0.16,-2.07 ± 0.22
CGGAAGCAAUAUUACGUAAU,-2.35 ± 0.19,-1.23 ± 0.19
CGGAAGCAAUAUUACGUCAC,,-1.76 ± 0.4
CGGAAGCAAUAUUACGUCUA,-0.422 ± 0.097,-0.659 ± 0.076
CGGAAGCAAUAUUACGUUAA,-3.47 ± 0.36,-3.06 ± 0.25
CGGAAGCAAUAUUACGUUCA,-0.293 ± 0.13,0.673 ± 0.16

Sequence,self-splicing fitness (ln) (30 °C),self-splicing fitness (ln) (37 °C)
CGGCAGCAAUAUUACGAAGG,-1.13 ± 0.12,0.373 ± 0.17
CGGCAGCAAUAUUACGACAU,-3.303 ± 0.021,-1.91 ± 0.035
CGGCAGCAAUAUUACGACCG,-3.76 ± 0.31,
CGGCAGCAAUAUUACGAGCU,-2.8 ± 0.17,-1.55 ± 0.14
CGGCAGCAAUAUUACGAGGU,-3.26 ± 0.19,-1.83 ± 0.15
CGGCAGCAAUAUUACGAUUG,-0.72 ± 0.055,0.0589 ± 0.08
CGGCAGCAAUAUUACGAUUU,-3.18 ± 0.22,-2.64 ± 0.23
CGGCAGCAAUAUUACGCAUG,-2.27 ± 0.074,-1.05 ± 0.082
CGGCAGCAAUAUUACGCGGC,-2.84 ± 0.27,-3.03 ± 0.26
CGGCAGCAAUAUUACGCGUA,-1.97 ± 0.29,-0.576 ± 0.16
CGGCAGCAAUAUUACGCUCC,-4.03 ± 0.39,-1.08 ± 0.25
CGGCAGCAAUAUUACGCUCG,,-2.93 ± 0.32
CGGCAGCAAUAUUACGCUUA,-0.963 ± 0.071,-0.184 ± 0.073
CGGCAGCAAUAUUACGGAUC,-2.88 ± 0.27,-2.04 ± 0.2
CGGCAGCAAUAUUACGGAUG,-0.873 ± 0.075,0.507 ± 0.11
CGGCAGCAAUAUUACGGCCA,-0.0175 ± 0.12,0.462 ± 0.16
CGGCAGCAAUAUUACGGCCC,-1.31 ± 0.27,0.163 ± 0.21
CGGCAGCAAUAUUACGGCGU,-1.6 ± 0.097,-0.949 ± 0.1
CGGCAGCAAUAUUACGGCUC,-0.945 ± 0.11,-0.28 ± 0.15
CGGCAGCAAUAUUACGGGAC,,-2.85 ± 0.47
CGGCAGCAAUAUUACGGGCC,-1.55 ± 0.2,-1.98 ± 0.32
CGGCAGCAAUAUUACGGUAG,-0.745 ± 0.076,-0.0175 ± 0.074
CGGCAGCAAUAUUACGGUCU,-0.384 ± 0.066,0.364 ± 0.087
CGGCAGCAAUAUUACGGUGA,-3.35 ± 0.21,-1.75 ± 0.17
